Results taken from patent publication US7166568B1, “Compositions and methods to inhibit formation of the C5b-9 complex of complement” (Oklahoma Medical Research Foundation, priority 1998, dated 2007).
“Also recorded” adds a separate entry of the source. Non-standard residues stand in square brackets, D forms with d. No end group written: not given here. allyl‑C = allyl-modified terminal Cys; allyl‑K = allyl-modified terminal Lys

B1: hu CD59: Human CD59 antigen, 18–21 kDa plasma membrane protein, inhibitor of the C5b-9 membrane attack complex; expressed recombinantly with TAG (protein, UniProt P13987 26-102, looked up)
CD59 glycoprotein: LQCYNCPNPTADCKTAVNCSSDFDACLITKAGLQVYNKCWKFEHCNFNDVTTRLRENELTYYCCKKDLCNFNEQLEN
modifications: TAG epitope tag
B2: rb CD59: rabbit CD59 cloned by the applicant (GenBank AF040387), expressed recombinantly with TAG on SV-T2 cells (protein)
chain: EQKLISEEDLNSLMCYHCLLPSPNCSTVTNCTPNHDACLTAVSGPRVYRQCWRYEDCNFEFISNRLEENSLKYNCCRKDLCNGPEDDG
B3: Ch6: hu CD59 residues 42–58 substituted into rb CD59 (protein)
chain: EQKLISEEDLNSLMCYHCLLPSPNCSTVTNCTPNHDACLTAVSGPRVYRQCWRFEHCNFNDVTTRLRENELKYNCCRKDLCNGPEDDG
B4: Ch6R: rabbit 42–58 substituted in hu CD59 (protein)
chain: EQKLISEEDLNLQCYNCPNPTADCKTAVNCSSDFDACLITKAGLQVYNKCWKYEDCNFEFISNRLEENSLTYYCCKKDLCNFNEQLEN
B5: BSA-conjugated hu C9 peptide 359-384 (peptide)
peptide: [allyl‑K]CLGYHLDVSLAFSEISVGAEFNKDD[allyl‑C]
modifications: also: coupled to BSA
notes: Synthetic peptide, custom ordered, adsorbed to microplates as a BSA conjugate; also called BSA-peptide conjugate

What follows are molecules tested against T1, hu CD59 (Homo sapiens, UniProt P13987) (assay: Inhibitory function of CD59 towards recombinant C9 constructs (hemolysis of C5b-8 chE with or without membrane CD59)). Conditions: chE with hu C5b67 and rb C8, 0 or 750 ng/ml CD59; compared with hu C9 and rb C9.
T1 construct: human erythrocyte membrane glycoprotein CD59 were purified; from tissue; host or cells: human erythrocyte membranes
T1 sequence (P13987 26-102): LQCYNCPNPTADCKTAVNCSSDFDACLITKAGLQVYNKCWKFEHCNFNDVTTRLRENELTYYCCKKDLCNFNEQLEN
Format: cell-based
Description: (§1) Analysis of the inhibitory function of CD 59 towards recombinant C9 constructs—Hemolytic activity of each C9 construct was assayed using as target cells chE that were reconstituted with purified hu CD59, as described by Husler, et al., (1995). chE were washed extensively and suspended in GVBS, and the membrane C5b67 complex assembled by mixing cells (1.4×10^9/ml) with C5b6 (13 μg/ml) followed by addition of C7 (1 μg/ml). After 10 min., the C5b67 chE were diluted to 1.4×10^8/ml in GVBE and incubated (10 min. 37° C.) with 0 or 750 ng/ml CD59. In each case, the final concentration of Nonidet P-40 was less than 0.002% (v/v). After washing in ice-cold GVBE, 2.8×10^8 of these cells were incubated (37° C.) in a total volume of 100 μl with 1 ng rb C8 plus, between zero and 50 ng of recombinant C9, serially diluted in Opti-MEM I. Hemolysis was determined after 30 minutes at 37° C., with correction for nonspecific lysis, determined in the absence of C9. In each experiment, the inhibitory activity of CD59 towards each recombinant C9 construct was determined from the reduction in complement lysis of those cells reconstituted with CD59, versus the identically-treated cells omitting CD59, measured at the midpoint of the C9 titration (i.e., 50% hemolysis). In order to directly compare results obtained in experiments performed on different days, data for each recombinant C9 construct were normalized to results obtained in each experiment with hu C9.
For “chimera #1: hu/rb C9 chimera R1-338H334–415R425–536”, the “sensitivity of the C9 construct to inhibition of MAC lytic activity by membrane CD59” value was “indistinguishable from hu C9 in its sensitivity to inhibition by CD59”.
For “chimera #5: hu/rb C9 chimera R1-363H359–391R401–536”, the “sensitivity of the C9 construct to inhibition of MAC lytic activity by membrane CD59” value was “conferred full recognition by CD59”.
“chimera #7: hu/rb C9 chimera R1-363H359–384R394–536” was tested, and the “sensitivity of the C9 construct to inhibition of MAC lytic activity by membrane CD59” value was “small but significant reduction in inhibition of MAC lytic activity by CD59”.
“chimera #9: hu/rb C9 chimera H1-357R363–424H416–538” was tested, and the “sensitivity of the C9 construct to inhibition of MAC lytic activity by membrane CD59” value was “did not completely eliminate interaction with CD59”.
For “Mutant hu C9: recombinant hu C9 expressed with Ala substitutions at Cys359 and Cys384”, the “sensitivity of the C9 construct to inhibition of MAC lytic activity by membrane CD59” value was “did not significantly affect”.
With “chimera #2: hu/rb C9 chimera R1-363H359–538” the “sensitivity of the C9 construct to inhibition of MAC lytic activity by membrane CD59” value was “unaffected”.
“chimera #8: hu/rb C9 chimera H1-333R339–424H416–538” was tested, and the “sensitivity of the C9 construct to inhibition of MAC lytic activity by membrane CD59” value was “indistinguishable from rb C9 and virtually unaffected by the presence of membrane CD59; also recorded: completely eliminated hu-selective interaction with CD59”.
“chimera #3: hu/rb C9 chimera H1-357R363–536” was tested, and the “sensitivity of the C9 construct to inhibition of MAC lytic activity by membrane CD59” value was “indistinguishable from rb C9 and only weakly inhibited by CD59”.
With “chimera #4: hu/rb C9 chimera R1-363H359–415R425–536” the “sensitivity of the C9 construct to inhibition of MAC lytic activity by membrane CD59” value was “indistinguishable from hu C9”.
“chimera #12: hu/rb C9 chimera H1-357R363–393H385–538” was tested, and the “sensitivity of the C9 construct to inhibition of MAC lytic activity by membrane CD59” value was “did not significantly diminish CD59's capacity to inhibit the lytic activity of C9”.
In the case of “chimera #6: hu/rb C9 chimera R1-400H392–415R425–536”, the “sensitivity of the C9 construct to inhibition of MAC lytic activity by membrane CD59” value is reported as “failed to confer any recognition by CD59”.

These molecules were tested against T2, hu C5b-9 (hu C5b67 with hu C8 and hu C9) (Homo sapiens, UniProt P02748+P07357) (assay: Assay of MAC inhibitory function of recombinant CD59 on transfected SV-T2 cells, hu C8 and C9). Conditions: CD59 construct expressed on SV-T2 cells; hu C5b67, 2 μM hu C8 and 5 μM hu C9; BCECF dye release.
T2 construct: human complement proteins (C5b7, C8 and C9) and rabbit complement proteins C8 and C9 were purified; from tissue; host or cells: human serum/plasma (C8 and C9 purified; C5b67 deposited from C8-depleted human serum)
Format: cell-based
Description: (§2) Expression of CD59 constructs in SV-T2 cells—SV-T2 cells were transfected with hu, rb, or chimeric TAG-CD59 pcDNA3 by electroporation as previously described (Zhou, Q., Zhao, J., Hüsler, T., and Sims, P. J. (1996) Mol. Immunol. 33, 1127–1134). After 48 hr, stable transfectants were selected with DMEM complete medium containing 1 mg/ml geneticin for 10 days. If episomal replication in the transfected cells was desired, 8×10^6 SV-T2 cells were transfected with 120 μg plasmid DNA by electroporation using GENE PULSE™ (Bio-rad) at 360 V and 500 μF (Zhou, Q., Zhao, J., Hüsler, T., and Sims, P. J. (1996) Mol. Immunol. 33, 1127–1134). Geneticin-selected cells were stained with mAb 9E10 against TAG epitope followed by FITC-conjugated goat antibody against mouse IgG, and sorted by flow cytometry (FACStar Plus; Becton Dickinson). Individual clones were then obtained by limiting dilution in DMEM containing 0.5 mg/ml geneticin. Comparison was made to clonal cell lines derived by transfection with pcDNA3, lacking insert (vector-only controls).
Measurement of cell surface TAG-CD59—The cell surface expression of each TAG-CD59 construct in transfected SV-T2 cells was quantified by the binding at saturation of mAb 9E10 (against TAG epitope) as previously described by Zhou, Q., Zhao, J., Hüsler, T., and Sims, P. J. (1996) Mol. Immunol. 33, 1127–1134. Following growth to near confluence, cells were detached and incubated for 30 min at 23° C. with mAb 9E10 (100 μg/ml) in HBSS containing 1% BSA. After washing with HBSS containing 1% BSA, the cells were incubated (20 min at 23° C.) with FITC conjugated goat anti-mouse IgG at a final concentration of 10 μg/ml. The fluorescence was determined by flow cytometry (FACScan, Becton Dickinson) as described previously by Zhou, Q., Zhao, J., Hüsler, T., and Sims, P. J. (1996) Mol. Immunol. 33, 1127–1134.
Assay of MAC inhibitory function—The complement-inhibitory activity of recombinant CD59 expressed on the transfected SV-T2 cells was evaluated by minor modification of methods previously described (Zhou, Q., Zhao, J., Hüsler, T., and Sims, P. J. (1996) Mol. Immunol. 33, 1127–1134, and Zhao, J., Rollins, S. A., Maher, S. E., Bothwell, A. L., and Sims, P. J. (1991) J. Biol. Chem. 266, 13418–13422). For cell clones expressing each chimeric CD59 construct, huC5b67 was deposited on the plasma membrane and susceptibility to the lytic activity of either hu C8 and C9 or rb C8 and C9 was measured and compared to identically-treated clones expressing wild-type hu or rb CD59. […] MAC-mediated cell lysis was determined from the measured release of BCECF dye from the cytoplasm, with correction for non-specific dye leak from matched controls omitting C8 and C9, as previously described by Zhou, Q., Zhao, J., Hüsler, T., and Sims, P. J. (1996) Mol. Immunol. […]
In the case of B1, the “MAC-inhibitory function towards hu C5b-9 (protection from lysis)” value is reported as “nearly completely protected from lysis by hu C5b-9”.
B2 was tested, and the “MAC-inhibitory function towards hu C5b-9 (protection from lysis)” value was “virtually no inhibition of the lytic action of MAC was observed”.

Same assay, conditions: SV-T2 clones; hu versus rb C8 and C9 used to assemble the C5b-9 complex
With B3 the “species-selective complement inhibitory function compared with full-length hu or rb CD59” value was “functionally indistinguishable from native hu CD59”.
In the case of B4, the “species-selective complement inhibitory function compared with full-length hu or rb CD59” value is reported as “functionally indistinguishable from rb CD59”.

These molecules were tested against T3, human erythrocyte membrane glycoprotein CD59 (purified) (human, UniProt P13987 26-102, biotinylated with NHS-LC-biotin where used as biotin-CD59) (assay: microplate assay: BSA-peptide coated wells, biotin-CD59 detected with Vectastain, OD 405 nm; corrected with a 20-fold excess of unlabeled CD59). Conditions: not given.
T3 construct: Purified from human erythrocyte membranes; Used as biotin-CD59 in the microplate assay and put back into chicken erythrocytes (chE) for the hemolytic assays; it may hold a C-terminal GPI signal that the purified protein lacks; also called hu CD59; biotin-CD59
T3 sequence: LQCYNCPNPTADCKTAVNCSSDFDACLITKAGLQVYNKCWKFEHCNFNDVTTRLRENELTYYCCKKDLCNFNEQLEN
Description: Briefly, the BSA-peptide conjugate was adsorbed to 96 well polyvinyl microplates by overnight coating at 5 µg/ml in 0.1 M sodium bicarbonate, pH 8.5. After blocking with 1% (w/v) BSA, wells were washed and incubated (4 hrs., 37° C.) with between 0.5 and 1 µg/ml biotin-CD59. After washing, the bound biotin-CD59 was detected with Vectastain (Vector Labs, Burlingame, Calif.), developed by addition of p-nitrophenyl phosphate (2 mg/ml) and optical density recorded at 405 nm (VMaxMicroplate Reader, Molecular Devices, Inc.). In all experiments, correction was made for background adsorption of biotin-CD59 to BSA-coated wells (no peptide) and for nonspecific binding of biotin-CD59 to peptide, determined in the presence of a 20-fold excess of unlabeled CD59. As a positive control for specific binding, comparison was made in each experiment to wells coated with 2 µg/ml hu C9.
B5: binds.

These molecules were tested against T4, C5b-9 assembled from rb C8 and C9 (Oryctolagus cuniculus, UniProt P48747+P98136) (assay: Assay of MAC inhibitory function of recombinant CD59 on transfected SV-T2 cells, rb C8 and C9). Conditions: CD59 construct expressed on SV-T2 cells; hu C5b67, 4 μM rb C8 and 5 μM rb C9; BCECF dye release.
T4 construct: rabbit complement proteins C8 and C9 were purified; from tissue; host or cells: rabbit serum/plasma (C8, C9); C8-depleted human serum (C5b67)
Format: cell-based, rabbit
Description: as §2, with “Comparison was made to clonal cell lines derived by transfection with pcDNA3, lacking insert (vector-only controls).” left out
Measurement of cell surface TAG-CD59—The cell surface expression of each TAG-CD59 construct in transfected SV-T2 cells was quantified by the binding at saturation of mAb 9E10 (against TAG epitope) as previously described by Zhou, Q., Zhao, J., Hüsler, T., and Sims, P. J. (1996) Mol. Immunol. […] The fluorescence was determined by flow cytometry (FACScan, Becton Dickinson) as described previously by Zhou, Q., Zhao, J., Hüsler, T., and Sims, P. J. (1996) Mol. Immunol. […]
With B1 the “MAC-inhibitory function towards C5b-9 assembled with rb C8 and C9 (protection from lysis)” value was “protective effect of hu CD59 was not observed”.
With B2 the “MAC-inhibitory function towards C5b-9 assembled with rb C8 and C9 (protection from lysis)” value was “conferred a selective resistance to lysis by C5b-9 assembled from rb C8 and C9”.

The molecules below were run on chE containing membrane C5b-8 (assay: Hemolytic titration of recombinant C9 constructs against chE containing membrane C5b-8). Conditions: not given.
Format: cell-based, chicken
Description: as §1, with “In order to directly compare results obtained in experiments performed on different days, data for each recombinant C9 construct were normalized to results obtained in each experiment with hu C9.” left out
For “Mutant hu C9: recombinant hu C9 expressed with Ala substitutions at Cys359 and Cys384”, the “hemolytic activity of the C9 construct” value was “did not significantly affect”.
